Reference: patent US20020164696A1 (CHR HANSEN A S, published 2002)
Square brackets hold non-standard residues; d marks the D form. Ends that are not written are not given here. Phe(4-NO2) = N[C@@H](Cc1ccc([N+](=O)[O-])cc1)C(=O)O

Columns and labels:
[1] = target: T1, synthetic peptide corresponding to camel kappa-CN (camel); assay: cleavage kinetics of the synthetic peptide at pH 5.6, Lineweaver-Burke plots; binding inferred from KM
T1 construct: Synthetic substrate peptide, free N- and C-terminus as printed; also called Cd kappa-CN; Cd kappa-CN peptide
T1 peptide: RPRPRPS[Phe(4-NO2)]IAI
Procedure: (§1) Two synthetic peptidases, which correspond to the chymosin sensitive regions of camel- and bovine κ-casein (CN), were proteolytically cleaved with bovine and camel chymosin, respectively. KM and kcat were determined at pH 5.6. Additionally, temperature and pH optima of these reactions were measured. The two following synthetic peptides were used in this study:
(§2) The measurement of samples was repeated 3 to 6 times, the Michaelis-Menten and the turnover values were determined from Lineweaver-Burke plots with weighted linear regression of data.

[2] = target: T2, synthetic peptide corresponding to bovine kappa-CN (bovine); assay: as above
T2 construct: Synthetic substrate peptide, free N- and C-terminus as printed; also called Bt kappa-CN; bovine kappa-CN peptide
T2 peptide: HPHPHLS[Phe(4-NO2)]MAI
Procedure: as §1, §2

- substrate binding relative to bovine chymosin [1]: ~2 fold
- substrate binding relative to bovine chymosin [2]: ~2 fold
B1: recombinant Camelus dromedarius chymosin (enzyme, UniProt Q9GK11 59-381, looked up)
chain: GKVAREPLTSYLDSQYFGKIYIGTPPQEFTVVFDTGSSDLWVPSIYCKSNVCKNHHRFDPRKSSTFRNLGKPLSIHYGTGSMEGFLGYDTVTVSNIVDPNQTVGLSTEQPGEVFTYSEFDGILGLAYPSLASEYSVPVFDNMMDRHLVARDLFSVYMDRNGQGSMLTLGAIDPSYYTGSLHWVPVTLQQYWQFTVDSVTINGVAVACVGGCQAILDTGTSVLFGPSSDILKIQMAIGATENRYGEFDVNCGNLRSMPTVVFEINGRDYPLSPSAYTSKDQGFCTSGFQGDNNSELWILGDVFIREYYSVFDRANNRVGLAKAI
notes: mature; also called Cd chymosin; camel chymosin
